This note sets out measurements from US20060287236A1.

The target in the assay is endogenous peptides. Nature of the assay: acid eluate of purified heterodimer, Edman pool sequencing.

B1: soluble rat FcRn heterodimer (receptor, part only; not given: light chain, UniProt P13599 23-291, looked up, part only)
MHC heavy: AEPRLPLMYHLAAVSDLSTGLPSFWATGWLGAQQYLTYNNLRQEADPCGAWIWENQVSWYWEKETTDLKSKEQLFLEAIRTLENQINGTFTLQGLLGCELAPDNSSLPTAVFALNGEEFMRFNPRTGNWSGEWPETDIVGNLWMKQPEAARKESEFLLTSCPERLLGHLERGRQNLEWKEPPSMRLKARPGNSGSSVLTCAAFSFYPPELKFRFLRNGLASGSGNCSTGPNGDGSFHAWSLLEVKRGDEHHYQCQVEHEGLAQPLTVDL
In turn, B1 came in with a pmole of amino acids recovered from acid elution, cycle 1 of 5.9 pmol; a pmole of amino acids recovered from acid elution, cycle 2 of 4.7 pmol; a pmole of amino acids recovered from acid elution, cycle 3 of 0.7 pmol; a pmole of amino acids recovered from acid elution, cycle 4 of 7.6 pmol. The pmole of amino acids recovered from acid elution, cycle 5 is 0 pmol; the pmole of amino acids recovered from acid elution, cycle 6 is 0 pmol; the pmole of amino acids recovered from acid elution, cycle 7 is 0.2 pmol; the pmole of amino acids recovered from acid elution, cycle 8 was 0.6 pmol. Besides, the pmole of amino acids recovered from acid elution, cycle 9 turned out to be 9.5 pmol and the pmole of amino acids recovered from acid elution, cycle 10 amounted to 0.3 pmol.
